± gives the uncertainty stated by the source.

The nature of this series: amyloid nucleation score (Sup35N fusion, yeast selection) (log enrichment); library NNK3; higher = more nucleation; inactive = no reads after selection. In a few lines: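 The nucleation score is the DiMSum log enrichment of output over input reads, centred on the mode score of non-aggregating sequences. Only sequences with 100 or more input reads were scored, using Illumina sequencing of input and output plasmid inserts. Psi-negative yeast expressing Sup35N fused to peptides of 20 random codons were induced 24 hours with 100 μM copper sulfate and grown 7 days at 30°C on medium lacking adenine and uracil.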
As to PFCVGIQFDSEKPLVYFNLL, the amyloid nucleation score entry was “inactive”. PFFCYWVTMKKVIFDTGVFA: the amyloid nucleation score result was “inactive”. As to PFGGMVLLILNDAFSMVYVS, the amyloid nucleation score entry was “inactive”. Consider PFVFTLNDQCGGIRSLICVL, for which the amyloid nucleation score entry is “inactive”. As to PGCAAWRRSYVS, the amyloid nucleation score entry was “inactive”. With PGDNIYILMGVYKGILWWAE, the amyloid nucleation score result is “inactive”. Consider PGHIYVML, for which the amyloid nucleation score result was “inactive”. Regarding PGLRVNYFRGESLDVYIVEE, the amyloid nucleation score was 2.14 ± 0.071.

Consider PGSFNLILVTYIGLLQKLLH, for which the amyloid nucleation score was 0.993 ± 0.16. The value for PHAYTVIDSSRFRPKERLCG was “inactive”; that for PHCPELEQQVKCGTS was 0.178 ± 0.26. With PHRFYYYWYSWCFILSNSCQ, the amyloid nucleation score entry was “inactive”.

Substance PKALVFNLEDDLQGIWSVT showed an amyloid nucleation score of 2.1 ± 0.079. As to PKIVYLLAFIVKIELVILTD, the amyloid nucleation score entry was “inactive”. PKSYRSGSAVFLGFVSWYRW: the amyloid nucleation score result was “inactive”.

For PLFWNGSC, the amyloid nucleation score result is “inactive”. The value for PLKCGFGPACPDFYIVEGGK was “inactive”. Consider PLRVRNQYRRLMISANQPDW, for which the amyloid nucleation score result was “inactive”.

With PLSNNKVVWWYYL, the amyloid nucleation score result was “inactive”. With PLVYLGSLSGDQHWLYFSKE, the amyloid nucleation score result is “inactive”. PMERGMCLMLGSLVG displayed an amyloid nucleation score of 0.942 ± 0.093.

The substance PMQTSNLNYCVCYCCAVRTF returned an amyloid nucleation score of 0.88 ± 0.34. With PNCLMS, the amyloid nucleation score entry is “inactive”. In the case of PNIMCYLVAMCVGLKFPARW, the amyloid nucleation score result was “inactive”. The value for PNNSLETTYFRVTWSFE was “inactive”.

Consider PNWNYSSLGQTSGQSSRHTS, for which the amyloid nucleation score entry is “inactive”. With PNYPDLYHFLICSLCSSFVT, the amyloid nucleation score amounted to 1.84 ± 0.076. With PPRLTS, the amyloid nucleation score result is “inactive”. Substance PRCARYYSKLFFCFSDLFLS had an amyloid nucleation score of 0.233 ± 0.25. Under PRCDYYQ stands “inactive”; under PRIQKSWVGAM, “inactive”; under PRIRD, “inactive”. The value for PRMRA was “inactive”. As for PRQTVISASQPDLNIRGFLC, the amyloid nucleation score entry was “inactive”.

PSGHV: the amyloid nucleation score entry was “inactive”. PSINWASVTVLGCAHSNFRC had an amyloid nucleation score of 2.29 ± 0.064. In the case of PTDDGLSNRMKQMSGHRVLH, the amyloid nucleation score entry was “inactive”. Take PTDIGGNPAGPGEFLIGTGW: the amyloid nucleation score entry is “inactive”.

Substance PTNWLVFYFCSGYAFNSFED displayed an amyloid nucleation score of 3.31 ± 0.074. As to PTSFQYRCVSI, the amyloid nucleation score entry is “inactive”. PTTKYFLYNIYSFV gave an amyloid nucleation score of 2.02 ± 0.079. Regarding PVARRVMDYKAGSRV, the amyloid nucleation score entry is “inactive”. Regarding PVDKRTSTAVDRFARAMNCQ, the amyloid nucleation score entry is “inactive”. For the substance PVECLDNDQGFLWPEVRVRG, the amyloid nucleation score entry was “inactive”. PVFLCSLLLVPKANSIPGK: the amyloid nucleation score entry was “inactive”.

In the case of PVGRKLTTFRVNTCLLGYFK, the amyloid nucleation score entry is “inactive”. PVKMGVVLCNKWIYSKGTKN: the amyloid nucleation score result was “inactive”. Consider PVLNAAVHDNFFTADHIRKK, for which the amyloid nucleation score result is “inactive”. As for PVLSRITFSNSSDRI, the amyloid nucleation score result is “inactive”. As for PVVLLSWELMILLWVNSFAL, the amyloid nucleation score result is “inactive”. In turn, PVVQCNLFFVMVYTLGIRCV came in with an amyloid nucleation score of -0.579 ± 0.98.

For the substance PYESHDEGQGNATM, the amyloid nucleation score result is “inactive”. In the case of PYFIPYCV, the amyloid nucleation score result is “inactive”. As for PYGICNLKF, the amyloid nucleation score entry was “inactive”. For the substance PYGLLQFNG, the amyloid nucleation score entry was “inactive”. In the case of PYIRNYSCSGSNQYLWDTSD, the amyloid nucleation score result is “inactive”.

As for PYLLAVNRGESSSSVWLMPM, the amyloid nucleation score result is “inactive”. As for PYSNTKGANELQSYRRYVVS, the amyloid nucleation score result is “inactive”.

With PYSTFLLCQGLTNYMYSSMS, the amyloid nucleation score entry is “inactive”. Turning to PYWIGNIFVEPSSD, the amyloid nucleation score entry is “inactive”. Consider QAIGSKRT, for which the amyloid nucleation score result is “inactive”.

The substance QALPSRLGSAGFDYWPPAMS showed an amyloid nucleation score of -0.039 ± 0.53. For the substance QATVISRVYNWAGLSDCVVV, the amyloid nucleation score is 0.425 ± 0.47. As to QCCIMAITLDYFASPRYIVR, the amyloid nucleation score is 0.022 ± 0.52. With QCQFYTSMMSAR, the amyloid nucleation score entry is “inactive”. Regarding QCRSLITRWGDSVYCLWTK, the amyloid nucleation score result is “inactive”. QDFKCRRGNY: the amyloid nucleation score result was “inactive”. Under QDPLVT stands “inactive”; under QDVVNPPLFY, “inactive”. With QELQYLKAGSKF, the amyloid nucleation score entry was “inactive”. For the substance QEYSGHATSGAHMRWAYSVE, the amyloid nucleation score result was “inactive”. Take QFAKIPIALTSVYRIKDGLY: the amyloid nucleation score result was “inactive”. QFCVQRFYGVEKKLLTLWGF displayed an amyloid nucleation score of 0.088 ± 0.75.

Turning to QFDLAMMSVVCYVFFMYWFL, the amyloid nucleation score result was “inactive”. Take QFFIFFACLVLVVITLT: the amyloid nucleation score stood at 2.53 ± 0.07.

Take QFKVLYPGREGDAKCHVGAR: the amyloid nucleation score entry was “inactive”.

As to QFRFSFASYFMRSVSIGWIG, the amyloid nucleation score entry was “inactive”. For QGAMVD, the amyloid nucleation score entry is “inactive”. As to QGDRLENKTLQVLHEKARSR, the amyloid nucleation score entry was “inactive”.

As for QGMALPLTTGGGVNKRTCYG, the amyloid nucleation score entry is “inactive”. For the substance QGMSAFYYVYGLKLWLHLLL, the amyloid nucleation score entry is “inactive”. In the case of QGVCWLVV, the amyloid nucleation score result was “inactive”. For QHLLYSPIEPIVPSVWDIVD, the amyloid nucleation score entry was “inactive”. For the substance QHSFVNSIFSSLGTLRKNLL, the amyloid nucleation score result was “inactive”. In the case of QKAVIGM, the amyloid nucleation score result is “inactive”. QKEDFIVSLWYRVRLFDRNS: the amyloid nucleation score result is “inactive”. Under QKESYHY stands “inactive”.

On to QKMCKPVFV, for which the amyloid nucleation score result is “inactive”. For the substance QKMGRGARKCMQLYVMGKDL, the amyloid nucleation score result was “inactive”. In the case of QKVVFW, the amyloid nucleation score entry was “inactive”. Take QLCGLAAWDFFCLVGHILKK: the amyloid nucleation score worked out at 1.23 ± 0.095. Consider QLIVRSGKDSGVLWNLGQYR, for which the amyloid nucleation score entry was “inactive”. Under QLNGCYCQFWMMKARTTKFH stands 2.86 ± 0.054.

As to QLRACPWYSEVFIEI, the amyloid nucleation score entry was “inactive”. Take QLVRQMTKGVG: the amyloid nucleation score result is “inactive”. QMCVVPTTY: the amyloid nucleation score result was “inactive”. The value for QNGCRLMTCC was “inactive”; that for QNPTWC was “inactive”. Under QNVGIVYRTST stands -0.928 ± 2.5; under QNVRLTMLLFRNKVYS, “inactive”; under QPPHKARGACYIRVFYRCTG, 0.226 ± 0.68.

Regarding QPWFMEVL, the amyloid nucleation score entry is “inactive”.

For the substance QQHRSALRVQVHRVCGNSVI, the amyloid nucleation score result was “inactive”. For QQIFRDNCPVGSRFIFLSR, the amyloid nucleation score entry was “inactive”. In the case of QQNQVSIDGCWV, the amyloid nucleation score entry was “inactive”. As for QQRHMLS, the amyloid nucleation score turned out to be 0.294 ± 0.25. The value for QQVVSLEGRRTKVTLTYQGS was 1.04 ± 0.11; that for QRFVSIFPGI was “inactive”; that for QRMMHFVLCVGFDRGIVPVK was “inactive”.

Consider QRTFG, for which the amyloid nucleation score result is “inactive”. Take QRVMFFCAMSLNKPRSV: the amyloid nucleation score entry is “inactive”. Regarding QRVWRMMQNLSRW, the amyloid nucleation score entry is “inactive”. Under QSASHRP stands “inactive”; under QSCCKQQILYHRGQTRHQ, “inactive”; under QSDHTLPMCRSSLRICVSGR, 1.75 ± 0.07. As to QSFGSHYASVMAKY, the amyloid nucleation score entry was “inactive”.

With QSGSTLTMLQWVIPSDSKLM, the amyloid nucleation score entry is “inactive”.

QSLLSVGEWNAQHMSLSSGR: the amyloid nucleation score entry is “inactive”. The value for QSRMLELS was “inactive”; that for QSSIHTFCLTLLLSKTYSYQ was “inactive”. Regarding QSSLVDGWKNLTKVRCGDYS, the amyloid nucleation score result is “inactive”. For QSYDL, the amyloid nucleation score entry is “inactive”. On to QTGCIPNER, for which the amyloid nucleation score is 1.05 ± 0.23. As to QTLFRTLWRFIIITAKQSSD, the amyloid nucleation score entry was “inactive”.

Turning to QTLRGCSNCRTRVGC, the amyloid nucleation score result was “inactive”. For QTYCYKEMFLITERWIPHSP, the amyloid nucleation score is -0.155 ± 0.8. In the case of QVLCWFISTADLLLAK, the amyloid nucleation score result is “inactive”. As to QVPLCHMAGKQNLVSRAQTC, the amyloid nucleation score result is “inactive”. Under QVTDEGD stands “inactive”; under QWKSSLDWRRCW, “inactive”; under QWLAEGYT, “inactive”. In turn, QWSGDDTT displayed an amyloid nucleation score of 0.368 ± 0.22. Regarding QYLPGRTVFCMQIYDVQLYP, the amyloid nucleation score result is “inactive”. The value for QYLTRVHSPEDGTMA was 0.125 ± 0.75.
